Assay results: paper PMC11437124 (Nature Communications, 2024)

The binders below were run against human TREM2 extracellular domain (ECD) (Homo sapiens, UniProt Q9NZC2).
Chain of human TREM2 extracellular domain (ECD) (Q9NZC2 19-174): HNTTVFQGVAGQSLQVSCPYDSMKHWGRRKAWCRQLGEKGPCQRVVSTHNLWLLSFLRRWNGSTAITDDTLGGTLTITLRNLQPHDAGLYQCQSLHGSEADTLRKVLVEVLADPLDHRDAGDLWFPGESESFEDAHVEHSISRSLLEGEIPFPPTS

Row | Binder | binding result
1 | R18-11-01 (antibody, V domains shown) VH: AVQLVESGGGLVQPKESLKISCAASGFTFINAAIYWVRQAPGKGLEWVARIRTKPDNYATYYADSVKGRFTISRDDSKSMVYLQMHNLKTEDTAMYYCTAATTGIKFDYWGQGVMVTVSA VL: DIVMTQSPSSLAVSAGETVTIDCKSSQSLLYSGNQKTYLAWYQQKPGQSPKLLIYWASTRQSGVPDRFIGSGSGTDFTLTISSVQAEDLAIYYCQQYYDTPLTFGSGTKLEIK | binds
2 | R18-12-22 (antibody, V domains shown) VH: AVQLVESGGGLVQPKESLKISCAASGFTFSNAAIYWVRQAPGKGLEWVARIRTKPNNYATYYADSVKGRFTISRDDSKSMVYLQMDNLKTEDTAMYYCTAGYYSGGPFAYWGQGTLVTVSS VL: DIVMTQSPSSLAVSAGETVTIDCKSSQSLLYSGNQKTYLAWYQQKPGQSPKLLIYWASTRQSGVPDRFIGSGSGTDFTLTISSVQAEDLAIYYCQQYYDTPLTFGSGTKLEIK | binds
3 | R18-12-21 (antibody, V domains shown) VH: AVQLVESGGGLVQPKESLKLSCAASGFTFSDAAMYWVRQAPGKGLEWVARIRTKPNNYATYYADSVKGRFTISRDDSKSMVYLQMDNLKTEDTAMYYCTALFLIVAPFAYWGQGTLVTVSS VL: DIVMTQSPSSLAVSAGETVTIDCKSSQSLLYSGNQKTYLAWYQQKPGQSPKLLIYWASTRQSGVPDRFIGSGSGTDFTLTISSVQAEDLAIYYCQQYYDTPLTFGSGTKLEIK | binds
4 | R18-12-18 (antibody, V domains shown) VH: AVQLVESGGGLVQPKESLKISCAASGFTFRNAAMFWVRQAPGKGLEWVARIRTKPNNFATYYADSVKGRFTISRDDSKSMVYLQMDNLKTEDTAMYYCTGFYNDGAPFDYWGQGTLVTVSS VL: DIVMTQSPSSLAVSAGETVTIDCKSSQSLLYSGNQKTYLAWYQQKPGQSPKLLIYWASTRQSGVPDRFIGSGSGTDFTLTISSVQAEDLAIYYCQQYYDTPLTFGSGTKLEIK | binds
5 | R18-11-13 (antibody, V domains shown) VH: AVQLVESGGGLVQPKESLKISCAASGFTFSNVAMYWVRQAPRKGLEWVARIRTKPNNYATYYADSVKGRFTISRDDSKSMVYLQMDNLKTDDTAMYYCTAGVYYGSMDAWGQGTSVTVSS VL: DIVMTQSPSSLAVSAGETVTIDCKSSQSLLYSGNQKTYLAWYQQKPGQSPKLLIYWASTRQSGVPDRFIGSGSGTDFTLTISSVQAEDLAIYYCQQYYDTPLTFGSGTKLEIK | binds
6 | R18-11-10 (antibody, V domains shown) VH: AVQLVESGGGVVRPKESLRISCAASGFTFSNVAMYWVRQAPGKGLEWVARIRTKPNNYATNYADSVKGRFTISRDDSNSMVNLQMENLKTEDTAMYYCTAVGGHNWFAYWGQGTLVTVSS VL: DIVMTQSPSSLAVSAGETVTIDCKSSQSLLYSGNQKTYLAWYQQKPGQSPKLLIYWASTRQSGVPDRFIGSGSGTDFTLTISSVQAEDLAIYYCQQYYDTPLTFGSGTKLEIK | binds
7 | R18-12-17 (antibody, V domains shown) VH: AVQLVESGGGLVKPKESLKISCAASGFTFSNAAMYWVRQAPGKGLDWVARIRTKPYNYATFYADSVKGRFTISRDDSKNMVYLQMDNLKTEDTAVYYCTTDGEPRPRFAYWGQGTLVTVSS VL: DIVMTQSPSSLAVSAGETVTIDCKSSQSLLYSGNQKTYLAWYQQKPGQSPKLLIYWASTRQSGVPDRFIGSGSGTDFTLTISSVQAEDLAIYYCQQYYDTPLTFGSGTKLEIK | binds
8 | R18-12-24 (antibody, V domains shown) VH: AVQLVESGGGLVQPKESLKISCAASGFTFSNAAMYWVRQAPGKGLEWVARIRTKPNNYATYYADSVKGRFTISRDDSKSMVYLQMDNLKTEDTAMYYCTADYSSYIRFAYWGQGTLVTVSS VL: DIVMTQSPSSLAVSAGETVTIDCKSSQSLLYSGNQKTYLAWYQQKPGQSPKLLIYWASTRQSGVPDRFIGSGSGTDFTLTISSVQAEDLAIYYCQQYYDTPLTFGSGTKLEIK | binds
9 | R18-12-23 (antibody, V domains shown) VH: AVQLVESGGGLVQPKESLKISCAASAFSFSNVAMYWVRQAPGKGLEWIARIRTKPNNYATYYADSVKGRFTISREDSKSMVYLQMDNLKTEDTATYYCTADNYPGGGFRYWGQGTLVTVSS VL: DIVMTQSPSSLAVSAGETVTIDCKSSQSLLYSGNQKTYLAWYQQKPGQSPKLLIYWASTRQSGVPDRFIGSGSGTDFTLTISSVQAEDLAIYYCQQYYDTPLTFGSGTKLEIK | binds

Now from value to binder:

Row | binding result | Binder
10 | binds | R18-12-20 (antibody, V domains shown) VH: AVQLVESGGGLVQPKESLKISCAASGFTLSTVAMYWVRQAPGKGLEWVARIRTKPNNYAIYYADSVKGRFTISRDDSKSMVYLQMDNLKTEDTAMYYCTAPGIIRAPFAYWGQGTLVTVSS VL: DIVMTQSPSSLAVSAGETVTIDCKSSQSLLYSGNQKTYLAWYQQKPGQSPKLLIYWASTRQSGVPDRFIGSGSGTDFTLTISSVQAEDLAIYYCQQYYDTPLTFGSGTKLEIK
11 | binds | R18-12-19 (antibody, V domains shown) VH: AVQLVESGGGLVQPKESLKISCAASGFTFSNAAMYWVRQAPGKGLEWVARIRTKPNNYATYYTDSVKGRFTISRDDSKSMVYLQMDNLKTEDTAMYYCTAEGSSRNWFAYWGQGTLVTVSS VL: DIVMTQSPSSLAVSAGETVTIDCKSSQSLLYSGNQKTYLAWYQQKPGQSPKLLIYWASTRQSGVPDRFIGSGSGTDFTLTISSVQAEDLAIYYCQQYYDTPLTFGSGTKLEIK
12 | binds | R18-11-06 (antibody, V domains shown) VH: AVQLVESGGGLVQPKESLKISCAASGFTFSNAAMYWVRQAPGKGLEWVARIRTQPNNYATYYADSVKGRFTISRDDSKSVVYLQMDNLKTADTAMYYCTAGYGYNLFDYWGQGVMVTVSS VL: DIVMTQSPSSLAVSAGETVTIDCKSSQSLLYSGNQKTYLAWYQQKPGQSPKLLIYWASTRQSGVPDRFIGSGSGTDFTLTISSVQAEDLAIYYCQQYYDTPLTFGSGTKLEIK
13 | binds | R18-11-03 (antibody, V domains shown) VH: AVQLVESGGGLVRPKESLKISCAASGFTFSNAAMYWVRQAPGKGLEWVARIRSKPNNYATHYADSVKGRFIISRDDSKGMVYLQMDNLKTEDTAKYYCTAAGGGYGFDDWGQGVMVTVSS VL: DIVMTQSPSSLAVSAGETVTIDCKSSQSLLYSGNQKTYLAWYQQKPGQSPKLLIYWASTRQSGVPDRFIGSGSGTDFTLTISSVQAEDLAIYYCQQYYDTPLTFGSGTKLEIK
14 | binds | R18-11-11 (antibody, V domains shown) VH: AVQLVESGGGLVQPKESLKISCAASGFTFSNAAMHWVRQAPGKGLEWVARIRTRPNNYATYYADSVKGRFTISRDDSKSMVYLQMDNLKTEDTAMYYCTAGTGSSPFAYWGQGTLVTVSS VL: DIVMTQSPSSLAVSAGETVTIDCKSSQSLLYSGNQKTYLAWYQQKPGQSPKLLIYWASTRQSGVPDRFIGSGSGTDFTLTISSVQAEDLAIYYCQQYYDTPLTFGSGTKLEIK
15 | binds | R18-11-02 (antibody, V domains shown) VH: AVQLVESGGGLVQPKESLKISCAASGFTFSNAAMYWVRQAPGKGLEWVARIRTKPNNYATYYADSMKGRFTISRDDSKSMVYLQMGNLKTEDTAMYYCTAELITTAFDYWGQGVMVTVSS VL: DIVMTQSPSSLAVSAGETVTIDCKSSQSLLYSGNQKTYLAWYQQKPGQSPKLLIYWASTRQSGVPDRFIGSGSGTDFTLTISSVQAEDLAIYYCQQYYDTPLTFGSGTKLEIK
16 | binds | R18-11-07 (antibody, V domains shown) VH: AVQLVESGGGLVQPKESLRISCAASGFTFSNAAMYWVRQAPGKGLEWVARIRTKPNSYAPYYADSVRGRFTISRDDSKSMVYLQMDNLKTEDTAMYYCTAGGNSGYSDYWGQGVMVTVSS VL: DIVMTQSPSSLAVSAGETVTIDCKSSQSLLYSGNQKTYLAWYQQKPGQSPKLLIYWASTRQSGVPDRFIGSGSGTDFTLTISSVQAEDLAIYYCQQYYDTPLTFGSGTKLEIK
17 | binds | R18-11-04 (antibody, V domains shown) VH: AVQLVESGGGLVQPKESLKISCAASGFTFSNAAMYWVRQAPGKGLEWVARIRTQPNNYATYYADSVKGRFTISRDDAKSMVYLQMDNLKTEDTAMYYCTAGTVEVTSTWWGQGVMVTVSS VL: DIVMTQSPSSLAVSAGETVTIDCKSSQSLLYSGNQKTYLAWYQQKPGQSPKLLIYWASTRQSGVPDRFIGSGSGTDFTLTISSVQAEDLAIYYCQQYYDTPLTFGSGTKLEIK
18 | binds | R18-11-12 (antibody, V domains shown) VH: AVQLVESGGGLVQPKESVKISCAASGFTFSNAAMYWVRQAPGKGLEWIARIRSKPHNHATYYADSVKGRFTISRDDSESMVYLQMDNLKTEDTAMYYCTSDTGPNWFTYWGQGTLVTVSS VL: DIVMTQSPSSLAVSAGETVTIDCKSSQSLLYSGNQKTYLAWYQQKPGQSPKLLIYWASTRQSGVPDRFIGSGSGTDFTLTISSVQAEDLAIYYCQQYYDTPLTFGSGTKLEIK
19 | binds | R18-11-08 (antibody, V domains shown) VH: AVQLVESGGGLVQPKESLKISCAASGFTFSNAAMYWVRQAPGKGLEWVARIRTKPNNYATYYADSVKGRFTISRDDSKSMVYLQMDNLKTEDTAMYYCTAAYYSGPFAYWGQGTLVTVSS VL: DIVMTQSPSSLAVSAGETVTIDCKSSQSLLYSGNQKTYLAWYQQKPGQSPKLLIYWASTRQSGVPDRFIGSGSGTDFTLTISSVQAEDLAIYYCQQYYDTPLTFGSGTKLEIK
20 | binds | R18-11-05 (antibody, V domains shown) VH: AVQLVESGGGLVQPKASLKISCVASGFTFSKNAMYWVRQAPGKGLEWVARIRTKPNNYAAYYADSVKGRFTISRDDSESMVYLQMDNLKTEDTAMYYCTAGDFNSPFDFWGQGVMVTVSS VL: DIVMTQSPSSLAVSAGETVTIDCKSSQSLLYSGNQKTYLAWYQQKPGQSPKLLIYWASTRQSGVPDRFIGSGSGTDFTLTISSVQAEDLAIYYCQQYYDTPLTFGSGTKLEIK
21 | binds | R18-12-14 (antibody, V domains shown) VH: AVQLVESGGGLVQPKESLKISCAVSGFTFTNAAMYWVRQAPGKGLEWIARIRTQPNNYATYYADSVRGRFTTSRDDSKSMVYLQMDNLKTEDTAMYYCTAGRATGTPFDYWGQGVMVTVSS VL: DIVMTQSPSSLAVSAGETVTIDCKSSQSLLYSGNQKTYLAWYQQKPGQSPKLLIYWASTRQSGVPDRFIGSGSGTDFTLTISSVQAEDLAIYYCQQYYDTPLTFGSGTKLEIK
